These binders were tested against human IL-6 (human, UniProt P05231 30-212) (assay: SPR Biacore, supernatant, Protein A capture, 37 C).
Protocol: Those four positions were selected based on their tolerance for mutations as observed in bacterial and mammalian screens. […] These cultures were centrifuged and supernatants containing secreted antibodies were harvested and diluted in HBS-EP+ running buffer (1:20 ratio).
Antibodies were captured on a Protein A chip (GE) by injecting 1:20 cell supernatant dilutions at 10 μL/min for 60 seconds. […] The sensor chip was regenerated by a 60 seconds injection of 10 mM Glycine pH 1.7 at the flow rate of 50 μL/min. […] For this setup, 1 μg/mL of purified antibody was injected over a Protein A chip at 10 μL/min for 25 seconds. […] The sensor chip was regenerated by a 60 seconds injection of 10 mM Glycine pH 1.7 at flow rate of 50 μL/min. Data analysis for supernatant and purified samples were performed using BIAevaluation software (GE). All sensorgrams were double reference subtracted and fit using a 1:1 Langmuir binding model.

Sequence of human IL-6 (P05231 30-212 limits assumed): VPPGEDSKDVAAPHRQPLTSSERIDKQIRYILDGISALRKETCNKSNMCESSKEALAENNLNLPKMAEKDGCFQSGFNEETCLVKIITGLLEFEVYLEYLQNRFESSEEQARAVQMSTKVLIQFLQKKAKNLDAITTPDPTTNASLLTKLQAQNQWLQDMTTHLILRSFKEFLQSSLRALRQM

| Kd [nM] | koff [s⁻¹] | kon [M⁻¹ s⁻¹] | Binder |
| --- | --- | --- | --- |
| 4.66 | 0.00354 | 759000 | Anti-IL-6 antibody, heavy chain S35H, G66D, L100P / light chain M32L, M50D, N52S, M88Q (antibody, IgG1, V domains shown, IgG1; variable domains only; VL is variant III) VH: EVQLVESGGGLVQPGGSLRLSCAASGFTFSPFAMHWVRQAPGKGLEWVAKISPGGSWTYYSDTVTDRFTFSLDTSKSTAYLQMNSLRAEDTAVYYCARQPWGYYALDIWGQGTLVTVSS VL: DIQLTQSPSSLSASVGDRVTITCSASISVSYLYWYQQKPGKAPKLLIYDDSSLASGVPSRFSGSGSGTDFTLTISSLQPEDFATYYCQQWSGYPYTFGQGTKVEIK |
| 0.934 | 0.000801 | 858000 | Anti-IL-6 antibody, heavy chain S35H, G66D, L100Y / light chain M32L, M50D, N52S, M88Q (antibody, IgG1, V domains shown, IgG1; variable domains only; VL is variant III) VH: EVQLVESGGGLVQPGGSLRLSCAASGFTFSPFAMHWVRQAPGKGLEWVAKISPGGSWTYYSDTVTDRFTFSLDTSKSTAYLQMNSLRAEDTAVYYCARQYWGYYALDIWGQGTLVTVSS VL: DIQLTQSPSSLSASVGDRVTITCSASISVSYLYWYQQKPGKAPKLLIYDDSSLASGVPSRFSGSGSGTDFTLTISSLQPEDFATYYCQQWSGYPYTFGQGTKVEIK |
| 3.61 | – | – | Anti-IL-6 antibody, heavy chain S35H, G66D, Q99D / light chain M32L, M50D, N52S, M88Q (antibody, IgG1, V domains shown, IgG1; variable domains only; VL is variant III) VH: EVQLVESGGGLVQPGGSLRLSCAASGFTFSPFAMHWVRQAPGKGLEWVAKISPGGSWTYYSDTVTDRFTFSLDTSKSTAYLQMNSLRAEDTAVYYCARDLWGYYALDIWGQGTLVTVSS VL: DIQLTQSPSSLSASVGDRVTITCSASISVSYLYWYQQKPGKAPKLLIYDDSSLASGVPSRFSGSGSGTDFTLTISSLQPEDFATYYCQQWSGYPYTFGQGTKVEIK |
| 0.244 | 0.000579 | 2.37e+06 | Anti-IL-6 antibody, heavy chain S35H, G66D, L100V / light chain WT (antibody, IgG1, V domains shown, IgG1; variable domains only) VH: EVQLVESGGGLVQPGGSLRLSCAASGFTFSPFAMHWVRQAPGKGLEWVAKISPGGSWTYYSDTVTDRFTFSLDTSKSTAYLQMNSLRAEDTAVYYCARQVWGYYALDIWGQGTLVTVSS VL: DIQLTQSPSSLSASVGDRVTITCSASISVSYMYWYQQKPGKAPKLLIYDMSNLASGVPSRFSGSGSGTDFTLTISSLQPEDFATYYCMQWSGYPYTFGQGTKVEIK |
| 0.638 | 0.000642 | 1.01e+06 | Anti-IL-6 antibody, heavy chain S35H, G66D, L100Y / light chain WT (antibody, IgG1, V domains shown, IgG1; variable domains only) VH: EVQLVESGGGLVQPGGSLRLSCAASGFTFSPFAMHWVRQAPGKGLEWVAKISPGGSWTYYSDTVTDRFTFSLDTSKSTAYLQMNSLRAEDTAVYYCARQYWGYYALDIWGQGTLVTVSS VL: DIQLTQSPSSLSASVGDRVTITCSASISVSYMYWYQQKPGKAPKLLIYDMSNLASGVPSRFSGSGSGTDFTLTISSLQPEDFATYYCMQWSGYPYTFGQGTKVEIK |
| 0.717 | 0.00132 | 1.85e+06 | Anti-IL-6 antibody, heavy chain S35H, G66D, Q99A / light chain WT (antibody, IgG1, V domains shown, IgG1; variable domains only) VH: EVQLVESGGGLVQPGGSLRLSCAASGFTFSPFAMHWVRQAPGKGLEWVAKISPGGSWTYYSDTVTDRFTFSLDTSKSTAYLQMNSLRAEDTAVYYCARALWGYYALDIWGQGTLVTVSS VL: DIQLTQSPSSLSASVGDRVTITCSASISVSYMYWYQQKPGKAPKLLIYDMSNLASGVPSRFSGSGSGTDFTLTISSLQPEDFATYYCMQWSGYPYTFGQGTKVEIK |
| 2.58 | 0.00774 | 3e+06 | Anti-IL-6 antibody, heavy chain S35H, G66D, Q99G / light chain M32L, M50D, N52S, M88Q (antibody, IgG1, V domains shown, IgG1; variable domains only; VL is variant III) VH: EVQLVESGGGLVQPGGSLRLSCAASGFTFSPFAMHWVRQAPGKGLEWVAKISPGGSWTYYSDTVTDRFTFSLDTSKSTAYLQMNSLRAEDTAVYYCARGLWGYYALDIWGQGTLVTVSS VL: DIQLTQSPSSLSASVGDRVTITCSASISVSYLYWYQQKPGKAPKLLIYDDSSLASGVPSRFSGSGSGTDFTLTISSLQPEDFATYYCQQWSGYPYTFGQGTKVEIK |
| 3.91 | 0.00193 | 493000 | Anti-IL-6 antibody, heavy chain S35H, G66D, Q99E / light chain WT (antibody, IgG1, V domains shown, IgG1; variable domains only) VH: EVQLVESGGGLVQPGGSLRLSCAASGFTFSPFAMHWVRQAPGKGLEWVAKISPGGSWTYYSDTVTDRFTFSLDTSKSTAYLQMNSLRAEDTAVYYCARELWGYYALDIWGQGTLVTVSS VL: DIQLTQSPSSLSASVGDRVTITCSASISVSYMYWYQQKPGKAPKLLIYDMSNLASGVPSRFSGSGSGTDFTLTISSLQPEDFATYYCMQWSGYPYTFGQGTKVEIK |
| 3.07 | 0.0045 | 1.47e+06 | Anti-IL-6 antibody, heavy chain S35H, G66D, Q99A / light chain M32L, M50D, N52S, M88Q (antibody, IgG1, V domains shown, IgG1; variable domains only; VL is variant III) VH: EVQLVESGGGLVQPGGSLRLSCAASGFTFSPFAMHWVRQAPGKGLEWVAKISPGGSWTYYSDTVTDRFTFSLDTSKSTAYLQMNSLRAEDTAVYYCARALWGYYALDIWGQGTLVTVSS VL: DIQLTQSPSSLSASVGDRVTITCSASISVSYLYWYQQKPGKAPKLLIYDDSSLASGVPSRFSGSGSGTDFTLTISSLQPEDFATYYCQQWSGYPYTFGQGTKVEIK |
| 0.196 | 0.000644 | 3.28e+06 | Anti-IL-6 antibody, heavy chain S35H, G66D, L100S / light chain WT (antibody, IgG1, V domains shown, IgG1; variable domains only) VH: EVQLVESGGGLVQPGGSLRLSCAASGFTFSPFAMHWVRQAPGKGLEWVAKISPGGSWTYYSDTVTDRFTFSLDTSKSTAYLQMNSLRAEDTAVYYCARQSWGYYALDIWGQGTLVTVSS VL: DIQLTQSPSSLSASVGDRVTITCSASISVSYMYWYQQKPGKAPKLLIYDMSNLASGVPSRFSGSGSGTDFTLTISSLQPEDFATYYCMQWSGYPYTFGQGTKVEIK |
| 2.34 | 0.00302 | 1.29e+06 | Anti-IL-6 antibody, heavy chain S35H, G66D, Q99D / light chain WT (antibody, IgG1, V domains shown, IgG1; variable domains only) VH: EVQLVESGGGLVQPGGSLRLSCAASGFTFSPFAMHWVRQAPGKGLEWVAKISPGGSWTYYSDTVTDRFTFSLDTSKSTAYLQMNSLRAEDTAVYYCARDLWGYYALDIWGQGTLVTVSS VL: DIQLTQSPSSLSASVGDRVTITCSASISVSYMYWYQQKPGKAPKLLIYDMSNLASGVPSRFSGSGSGTDFTLTISSLQPEDFATYYCMQWSGYPYTFGQGTKVEIK |
| 3.39 | 0.00166 | 489000 | Anti-IL-6 antibody, heavy chain S35H, G66D, Q99F / light chain WT (antibody, IgG1, V domains shown, IgG1; variable domains only) VH: EVQLVESGGGLVQPGGSLRLSCAASGFTFSPFAMHWVRQAPGKGLEWVAKISPGGSWTYYSDTVTDRFTFSLDTSKSTAYLQMNSLRAEDTAVYYCARFLWGYYALDIWGQGTLVTVSS VL: DIQLTQSPSSLSASVGDRVTITCSASISVSYMYWYQQKPGKAPKLLIYDMSNLASGVPSRFSGSGSGTDFTLTISSLQPEDFATYYCMQWSGYPYTFGQGTKVEIK |
| 0.0997 | 0.000113 | 1.14e+06 | Anti-IL-6 antibody, heavy chain S35H, G66D, Q99F / light chain M32L, M50D, N52S, M88Q (antibody, IgG1, V domains shown, IgG1; variable domains only; VL is variant III) VH: EVQLVESGGGLVQPGGSLRLSCAASGFTFSPFAMHWVRQAPGKGLEWVAKISPGGSWTYYSDTVTDRFTFSLDTSKSTAYLQMNSLRAEDTAVYYCARFLWGYYALDIWGQGTLVTVSS VL: DIQLTQSPSSLSASVGDRVTITCSASISVSYLYWYQQKPGKAPKLLIYDDSSLASGVPSRFSGSGSGTDFTLTISSLQPEDFATYYCQQWSGYPYTFGQGTKVEIK |
| 1.01 | 0.000957 | 951000 | Anti-IL-6 antibody, heavy chain S35H, G66D, L100R / light chain WT (antibody, IgG1, V domains shown, IgG1; variable domains only) VH: EVQLVESGGGLVQPGGSLRLSCAASGFTFSPFAMHWVRQAPGKGLEWVAKISPGGSWTYYSDTVTDRFTFSLDTSKSTAYLQMNSLRAEDTAVYYCARQRWGYYALDIWGQGTLVTVSS VL: DIQLTQSPSSLSASVGDRVTITCSASISVSYMYWYQQKPGKAPKLLIYDMSNLASGVPSRFSGSGSGTDFTLTISSLQPEDFATYYCMQWSGYPYTFGQGTKVEIK |
| 0.878 | 0.00116 | 1.32e+06 | Anti-IL-6 antibody, heavy chain S35H, G66D, L100R / light chain M32L, M50D, N52S, M88Q (antibody, IgG1, V domains shown, IgG1; variable domains only; VL is variant III) VH: EVQLVESGGGLVQPGGSLRLSCAASGFTFSPFAMHWVRQAPGKGLEWVAKISPGGSWTYYSDTVTDRFTFSLDTSKSTAYLQMNSLRAEDTAVYYCARQRWGYYALDIWGQGTLVTVSS VL: DIQLTQSPSSLSASVGDRVTITCSASISVSYLYWYQQKPGKAPKLLIYDDSSLASGVPSRFSGSGSGTDFTLTISSLQPEDFATYYCQQWSGYPYTFGQGTKVEIK |
| 4.71 | 0.00089 | 189000 | Anti-IL-6 antibody, heavy chain S35H, G66D, Q99E / light chain M32L, M50D, N52S, M88Q (antibody, IgG1, V domains shown, IgG1; variable domains only; VL is variant III) VH: EVQLVESGGGLVQPGGSLRLSCAASGFTFSPFAMHWVRQAPGKGLEWVAKISPGGSWTYYSDTVTDRFTFSLDTSKSTAYLQMNSLRAEDTAVYYCARELWGYYALDIWGQGTLVTVSS VL: DIQLTQSPSSLSASVGDRVTITCSASISVSYLYWYQQKPGKAPKLLIYDDSSLASGVPSRFSGSGSGTDFTLTISSLQPEDFATYYCQQWSGYPYTFGQGTKVEIK |
| 0.18 | 0.00064 | 3.56e+06 | Anti-IL-6 antibody, heavy chain S35H, G66D, L100Q / light chain WT (antibody, IgG1, V domains shown, IgG1; variable domains only) VH: EVQLVESGGGLVQPGGSLRLSCAASGFTFSPFAMHWVRQAPGKGLEWVAKISPGGSWTYYSDTVTDRFTFSLDTSKSTAYLQMNSLRAEDTAVYYCARQQWGYYALDIWGQGTLVTVSS VL: DIQLTQSPSSLSASVGDRVTITCSASISVSYMYWYQQKPGKAPKLLIYDMSNLASGVPSRFSGSGSGTDFTLTISSLQPEDFATYYCMQWSGYPYTFGQGTKVEIK |
| 0.217 | 0.000724 | 3.34e+06 | Anti-IL-6 antibody, heavy chain S35H, G66D, L100T / light chain WT (antibody, IgG1, V domains shown, IgG1; variable domains only) VH: EVQLVESGGGLVQPGGSLRLSCAASGFTFSPFAMHWVRQAPGKGLEWVAKISPGGSWTYYSDTVTDRFTFSLDTSKSTAYLQMNSLRAEDTAVYYCARQTWGYYALDIWGQGTLVTVSS VL: DIQLTQSPSSLSASVGDRVTITCSASISVSYMYWYQQKPGKAPKLLIYDMSNLASGVPSRFSGSGSGTDFTLTISSLQPEDFATYYCMQWSGYPYTFGQGTKVEIK |
| 1.98 | 0.00124 | 625000 | Anti-IL-6 antibody, heavy chain S35H, G66D, L100W / light chain M32L, M50D, N52S, M88Q (antibody, IgG1, V domains shown, IgG1; variable domains only; VL is variant III) VH: EVQLVESGGGLVQPGGSLRLSCAASGFTFSPFAMHWVRQAPGKGLEWVAKISPGGSWTYYSDTVTDRFTFSLDTSKSTAYLQMNSLRAEDTAVYYCARQWWGYYALDIWGQGTLVTVSS VL: DIQLTQSPSSLSASVGDRVTITCSASISVSYLYWYQQKPGKAPKLLIYDDSSLASGVPSRFSGSGSGTDFTLTISSLQPEDFATYYCQQWSGYPYTFGQGTKVEIK |
